Test results as given in PMC9482650, “Quantitative fragmentomics allow affinity mapping of interactomes” (Nature Communications, 2022).

T1: PARD3B_1, Q8TEW8
T1 sequence (Q8TEW8 196-299, limits assumed, looked up): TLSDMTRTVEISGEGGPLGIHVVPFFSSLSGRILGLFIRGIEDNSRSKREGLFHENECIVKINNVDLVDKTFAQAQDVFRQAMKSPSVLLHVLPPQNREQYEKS

T2: PCLO, Q9Y6V0
T2 sequence (Q9Y6V0 4491-4600, limits assumed, looked up): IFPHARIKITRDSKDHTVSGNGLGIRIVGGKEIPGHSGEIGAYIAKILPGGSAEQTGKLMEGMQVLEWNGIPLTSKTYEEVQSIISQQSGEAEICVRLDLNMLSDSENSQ

T3: SIPA1L2, Q9P2F8
T3 sequence (Q9P2F8 945-1036, limits assumed, looked up): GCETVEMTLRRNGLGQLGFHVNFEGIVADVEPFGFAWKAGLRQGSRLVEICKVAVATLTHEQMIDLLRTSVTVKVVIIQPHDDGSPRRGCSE

T4: DFNB31_3, Q9P202
T4 sequence (Q9P202 811-907, limits assumed, looked up): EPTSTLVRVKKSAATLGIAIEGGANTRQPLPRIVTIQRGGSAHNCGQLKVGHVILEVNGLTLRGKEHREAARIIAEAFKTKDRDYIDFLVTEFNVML

T5: TIAM2, Q8IVF5
T5 sequence (Q8IVF5 885-986, limits assumed, looked up): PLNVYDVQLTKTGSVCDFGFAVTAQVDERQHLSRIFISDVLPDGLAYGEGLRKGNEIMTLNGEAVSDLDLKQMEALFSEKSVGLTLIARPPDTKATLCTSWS

T6: GRIP1_7, Q9Y3R0
T6 sequence (Q9Y3R0 999-1096, limits assumed, looked up): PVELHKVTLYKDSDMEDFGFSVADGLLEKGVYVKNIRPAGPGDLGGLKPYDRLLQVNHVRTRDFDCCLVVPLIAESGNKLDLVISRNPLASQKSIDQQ

T7: LRRC7, Q96NW7
T7 sequence (Q96NW7 1440-1537, limits assumed, looked up): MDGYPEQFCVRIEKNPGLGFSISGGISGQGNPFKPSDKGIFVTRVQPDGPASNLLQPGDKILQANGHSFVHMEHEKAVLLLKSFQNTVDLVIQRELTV

T8: GRIP1_4, Q9Y3R0
T8 sequence (Q9Y3R0 467-571, limits assumed, looked up): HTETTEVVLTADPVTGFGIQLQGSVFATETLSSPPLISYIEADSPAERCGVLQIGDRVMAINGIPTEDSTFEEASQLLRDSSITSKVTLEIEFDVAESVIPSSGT

T9: DLG3_1, Q92796
T9 sequence (Q92796 125-227, limits assumed, looked up): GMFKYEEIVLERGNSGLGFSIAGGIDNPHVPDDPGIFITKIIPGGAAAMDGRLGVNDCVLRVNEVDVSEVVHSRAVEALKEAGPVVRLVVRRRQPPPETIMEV

T10: MPDZ_10, O75970
T10 sequence (O75970 1624-1722, limits assumed, looked up): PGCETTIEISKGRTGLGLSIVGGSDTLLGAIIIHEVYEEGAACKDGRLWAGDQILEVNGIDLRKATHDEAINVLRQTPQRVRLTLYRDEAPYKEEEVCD

T11: LNX2_2, Q8N448
T11 sequence (Q8N448 334-432, limits assumed, looked up): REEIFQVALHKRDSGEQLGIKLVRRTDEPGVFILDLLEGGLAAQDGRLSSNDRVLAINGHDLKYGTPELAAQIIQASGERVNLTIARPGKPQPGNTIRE


Legend:
Assay in all cases: holdup assay
Design in all cases: key: below the threshold = too weak to quantify, mostly under pKd 3.1 to 4
Conditions in all cases: plain residues with an end cap or a label only (N-terminal biotin on a linker: ado-ado)
PARD3B_1, Q8TEW8 = target: T1, PARD3B_1, Q8TEW8
NHERF4_2, Q86UT5 = target: NHERF4_2, Q86UT5
Chain of NHERF4_2, Q86UT5 (Q86UT5 220-308): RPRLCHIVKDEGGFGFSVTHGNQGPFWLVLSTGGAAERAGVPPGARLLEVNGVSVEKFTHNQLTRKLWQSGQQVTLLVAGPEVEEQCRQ

GRID2IP_1, A4D2P6 = target: GRID2IP_1, A4D2P6
Chain of GRID2IP_1, A4D2P6 (A4D2P6 1-87): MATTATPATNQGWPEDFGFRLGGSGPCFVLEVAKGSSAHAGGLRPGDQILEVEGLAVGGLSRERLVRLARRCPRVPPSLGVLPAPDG

LAP2, Q96RT1 = target: LAP2, Q96RT1
Chain of LAP2, Q96RT1 (Q96RT1 other isoform, or with tags, fused parts or gaps): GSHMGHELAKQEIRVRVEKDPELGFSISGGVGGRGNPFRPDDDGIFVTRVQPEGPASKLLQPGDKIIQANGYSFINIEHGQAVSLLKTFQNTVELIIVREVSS

PCLO, Q9Y6V0 = target: T2, PCLO, Q9Y6V0
DLG1_1, Q12959 = target: DLG1_1, Q12959
SCRIB_2, Q14160 = target: SCRIB_2, Q14160
Chain of SCRIB_2, Q14160 (Q14160 857-960): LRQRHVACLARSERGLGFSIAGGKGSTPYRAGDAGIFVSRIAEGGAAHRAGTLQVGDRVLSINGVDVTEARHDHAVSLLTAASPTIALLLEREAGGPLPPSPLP

DLG2_2, Q15700 = target: DLG2_2, Q15700
Chain of DLG2_2, Q15700 (Q15700 189-283): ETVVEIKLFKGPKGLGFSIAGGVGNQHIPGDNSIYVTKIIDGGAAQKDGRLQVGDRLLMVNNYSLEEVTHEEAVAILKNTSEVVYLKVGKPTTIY

SIPA1L2, Q9P2F8 = target: T3, SIPA1L2, Q9P2F8
AHNAK1, Q09666 = target: AHNAK1, Q09666
Chain of AHNAK1, Q09666 (Q09666 4-100): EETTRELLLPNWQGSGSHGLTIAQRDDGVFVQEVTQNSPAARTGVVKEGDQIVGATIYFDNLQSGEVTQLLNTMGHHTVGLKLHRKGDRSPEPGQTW

DFNB31_3, Q9P202 = target: T4, DFNB31_3, Q9P202
TIAM2, Q8IVF5 = target: T5, TIAM2, Q8IVF5
GRIP1_7, Q9Y3R0 = target: T6, GRIP1_7, Q9Y3R0
LRRC7, Q96NW7 = target: T7, LRRC7, Q96NW7
Inadl_1, Q8NI35 = target: Inadl_1, Q8NI35
Chain of Inadl_1, Q8NI35 (Q8NI35 113-229): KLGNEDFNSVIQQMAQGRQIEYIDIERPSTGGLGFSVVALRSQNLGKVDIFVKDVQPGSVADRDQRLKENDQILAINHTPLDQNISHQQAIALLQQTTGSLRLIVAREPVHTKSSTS

HTRA1, Q92743 = target: HTRA1, Q92743
Chain of HTRA1, Q92743 (Q92743 360-477): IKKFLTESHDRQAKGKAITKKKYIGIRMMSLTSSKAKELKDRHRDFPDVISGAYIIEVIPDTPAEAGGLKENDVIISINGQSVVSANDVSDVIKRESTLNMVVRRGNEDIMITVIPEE

GRIP1_4, Q9Y3R0 = target: T8, GRIP1_4, Q9Y3R0
PDLIM1, O00151 = target: PDLIM1, O00151
Chain of PDLIM1, O00151 (O00151 1-87): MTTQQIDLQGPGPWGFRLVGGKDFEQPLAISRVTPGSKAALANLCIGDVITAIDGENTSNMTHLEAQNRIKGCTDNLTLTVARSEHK

TJP1_2, Q07157 = target: TJP1_2, Q07157
Chain of TJP1_2, Q07157 (Q07157 181-274): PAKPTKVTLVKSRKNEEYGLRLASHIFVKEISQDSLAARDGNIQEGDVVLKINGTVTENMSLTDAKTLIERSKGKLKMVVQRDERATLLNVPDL

DLG3_1, Q92796 = target: T9, DLG3_1, Q92796
MAGI2_3, Q86UL8 = target: MAGI2_3, Q86UL8
Chain of MAGI2_3, Q86UL8 (Q86UL8 600-682): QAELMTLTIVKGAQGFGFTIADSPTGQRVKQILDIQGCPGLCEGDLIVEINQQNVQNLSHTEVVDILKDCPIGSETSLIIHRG

SCRIB_3, Q14160 = target: SCRIB_3, Q14160
Chain of SCRIB_3, Q14160 (Q14160 999-1103): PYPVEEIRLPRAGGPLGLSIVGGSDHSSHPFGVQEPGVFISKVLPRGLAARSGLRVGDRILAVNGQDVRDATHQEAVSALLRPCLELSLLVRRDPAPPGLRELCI

MPDZ_10, O75970 = target: T10, MPDZ_10, O75970
NOS1, P29475 = target: NOS1, P29475
Chain of NOS1, P29475 (P29475 9-101): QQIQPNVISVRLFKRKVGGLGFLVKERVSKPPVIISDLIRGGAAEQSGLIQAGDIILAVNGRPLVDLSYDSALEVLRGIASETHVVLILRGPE

MAGI2_6, Q86UL8 = target: MAGI2_6, Q86UL8
Chain of MAGI2_6, Q86UL8 (Q86UL8 1141-1229): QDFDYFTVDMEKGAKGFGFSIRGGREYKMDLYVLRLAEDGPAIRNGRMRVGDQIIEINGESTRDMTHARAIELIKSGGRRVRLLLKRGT

DLG4_2, P78352 = target: DLG4_2, P78352
Chain of DLG4_2, P78352 (P78352 155-259): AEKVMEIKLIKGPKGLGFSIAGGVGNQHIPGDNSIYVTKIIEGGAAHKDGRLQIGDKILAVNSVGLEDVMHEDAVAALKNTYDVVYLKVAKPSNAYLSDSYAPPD

LNX2_2, Q8N448 = target: T11, LNX2_2, Q8N448

| pKd (PARD3B_1, Q8TEW8) | pKd (NHERF4_2, Q86UT5) | pKd (GRID2IP_1, A4D2P6) | pKd (LAP2, Q96RT1) | pKd (PCLO, Q9Y6V0) | pKd (DLG1_1, Q12959) | pKd (SCRIB_2, Q14160) | pKd (DLG2_2, Q15700) | pKd (SIPA1L2, Q9P2F8) | pKd (AHNAK1, Q09666) | pKd (DFNB31_3, Q9P202) | pKd (TIAM2, Q8IVF5) | pKd (GRIP1_7, Q9Y3R0) | pKd (LRRC7, Q96NW7) | pKd (Inadl_1, Q8NI35) | pKd (HTRA1, Q92743) | pKd (GRIP1_4, Q9Y3R0) | pKd (PDLIM1, O00151) | pKd (TJP1_2, Q07157) | pKd (DLG3_1, Q92796) | Binder | further results |
| --- | --- | --- | --- | --- | --- | --- | --- | --- | --- | --- | --- | --- | --- | --- | --- | --- | --- | --- | --- | --- | --- |
| 4.95 | below the threshold | below the threshold | below the threshold | below the threshold | below the threshold | below the threshold | below the threshold | below the threshold | below the threshold | 3.65 | 3.86 | below the threshold | below the threshold | below the threshold | 5.05 | below the threshold | below the threshold | below the threshold | below the threshold | PDGEMMEVLI [AMOTL1, Q8IY63] | pKd (MAGI2_3, Q86UL8): below the threshold; pKd (SCRIB_3, Q14160): 3.74; pKd (MPDZ_10, O75970): below the threshold; pKd (NOS1, P29475): 4.01; pKd (MAGI2_6, Q86UL8): below the threshold; pKd (DLG4_2, P78352): below the threshold; pKd (LNX2_2, Q8N448): 5.03 |
| below the threshold | below the threshold | below the threshold | below the threshold | below the threshold | 4.44 | 3.71 | 4.49 | below the threshold | below the threshold | below the threshold | below the threshold | below the threshold | below the threshold | below the threshold | 4.2 | below the threshold | below the threshold | below the threshold | 4.06 | VISERNSTTV [C3AR1, Q16581] | pKd (MAGI2_3, Q86UL8): below the threshold; pKd (SCRIB_3, Q14160): 3.62; pKd (MPDZ_10, O75970): below the threshold; pKd (NOS1, P29475): below the threshold; pKd (MAGI2_6, Q86UL8): 3.49; pKd (DLG4_2, P78352): 4.65; pKd (LNX2_2, Q8N448): 5.05 |
| below the threshold | 3.49 | below the threshold | 3.87 | below the threshold | 5.24 | 4.15 | 5.2 | below the threshold | below the threshold | 4.31 | 3.85 | below the threshold | below the threshold | below the threshold | 4.83 | below the threshold | below the threshold | below the threshold | 4.38 | REVVMRVTTV [MARCHF9, Q86YJ5] | pKd (MAGI2_3, Q86UL8): 4.6; pKd (SCRIB_3, Q14160): 4.43; pKd (MPDZ_10, O75970): 4.4; pKd (NOS1, P29475): 3.76; pKd (MAGI2_6, Q86UL8): 4.4; pKd (DLG4_2, P78352): 5.27; pKd (LNX2_2, Q8N448): 5.6 |
| 4.32 | below the threshold | below the threshold | below the threshold | below the threshold | 3.84 | below the threshold | 3.51 | below the threshold | below the threshold | below the threshold | below the threshold | below the threshold | below the threshold | below the threshold | 4.26 | below the threshold | below the threshold | 3.55 | below the threshold | WRSKRTDTLL [RAMP3, O60896] | pKd (MAGI2_3, Q86UL8): below the threshold; pKd (SCRIB_3, Q14160): 3.98; pKd (MPDZ_10, O75970): below the threshold; pKd (NOS1, P29475): 3.89; pKd (MAGI2_6, Q86UL8): 3.69; pKd (DLG4_2, P78352): 3.98; pKd (LNX2_2, Q8N448): below the threshold |
| below the threshold | below the threshold | below the threshold | 4.56 | below the threshold | 4.96 | 4.42 | 4.84 | below the threshold | below the threshold | below the threshold | below the threshold | below the threshold | below the threshold | below the threshold | 4.69 | below the threshold | below the threshold | below the threshold | 4.51 | QELLEYETTV [XKR7, Q5GH72] | pKd (MAGI2_3, Q86UL8): below the threshold; pKd (SCRIB_3, Q14160): 4.81; pKd (MPDZ_10, O75970): below the threshold; pKd (NOS1, P29475): below the threshold; pKd (MAGI2_6, Q86UL8): 4.45; pKd (DLG4_2, P78352): 4.91; pKd (LNX2_2, Q8N448): 4.71 |
